Measured values taken from patent US20240132578A1.

Columns and labels:
Experiment in all cases: cell-based or functional assay
[1] = biological target: HIV-1 93IN905 Env (HIV-1)
[2] = biological target: HIV-1 CMU02 envelope protein (Env) on pseudovirus (HIV-1)
[3] = biological target: HIV-1 Env of isolate MGRM-F1-015 (pseudovirus) (HIV-1)
[4] = biological target: HIV-1 envelope glycoprotein (Env) of isolate 92RW008, subtype A (HIV-1)
[5] = biological target: HIV-1 envelope glycoprotein (Env) of isolate 93WR029, subtype A (HIV-1)
[6] = biological target: HIV-1 envelope glycoprotein (Env) of isolate MG RM-A-014, subtype A (HIV-1)
[7] = biological target: HIV-1 envelope glycoprotein (Env) of isolate MGRM-Chronic-B-003, on pseudovirus (HIV-1)
[8] = biological target: HIV-1 envelope glycoprotein (Env) of isolate MGRM-Chronic-B-020, on pseudovirus (HIV-1)
[9] = biological target: HIV-1 envelope glycoprotein (Env) of isolate NL43, on pseudovirus (HIV-1)
[10] = biological target: HIV-1 envelope glycoprotein (Env) of isolate SC422661.8, on pseudovirus (HIV-1)
[11] = biological target: HIV-1 Env of isolate 92UG114 (HIV-1)
[12] = biological target: HIV-1 Env of isolate MG RM-A-005 (pseudovirus) (HIV-1)
[13] = biological target: HIV-1 Env of isolate MGRM-C-014 (subtype C), on pseudovirus (HIV-1)
[14] = biological target: HIV-1 Env of isolate MGRM-G-006 (subtype G) (HIV-1)
[15] = biological target: HIV-1 Env of isolate 92UG024 (pseudovirus) (HIV-1)
[16] = biological target: HIV-1 Env of isolate MGRM-AE-004 (subtype AE) (HIV-1)
[17] = biological target: HIV-1 Env of isolate MGRM-AG-002 (subtype AG) (HIV-1)
[18] = biological target: HIV-1 Env of isolate MGRM-C-005 (HIV-1)
[19] = biological target: HIV-1 Env of isolate MGRM-D-016 (pseudovirus) (HIV-1)
[20] = biological target: HIV-1 Env of isolate MGRM-D-018 (pseudovirus) (HIV-1)
[21] = biological target: HIV-1 Env of isolate MGRM-D-020 (pseudovirus) (HIV-1)
[22] = biological target: HIV-1 Env of isolate MGRM-F1-004 (HIV-1)
[23] = biological target: HIV-1 Env of isolate MGRM-F1-015 (HIV-1)
[24] = biological target: HIV-1 Env of isolate MGRM-F1-020 (HIV-1)
[25] = biological target: HIV-1 Env of pseudovirus isolate MGRM-C-009 (clade C) (HIV-1)
[26] = biological target: HIV-1 Env of pseudovirus MGRM-D-012 (HIV-1)
[27] = biological target: HIV-1 Env of pseudovirus MGRM-D-024 (HIV-1)
[28] = biological target: HIV-1 Env of pseudovirus MGRM-D-029 (HIV-1)
[29] = biological target: HIV-1 envelope glycoprotein (Env) of isolate MG RM-AG-001 (HIV-1)
[30] = biological target: HIV-1 Env of isolate 92RW009 (clade A pseudovirus) (HIV-1)
[31] = biological target: HIV-1 Env of isolate APV_13, clade B (HIV-1)
[32] = biological target: HIV-1 Env of isolate MGRM-A-004 (clade A pseudovirus) (HIV-1)
[33] = biological target: HIV-1 Env of isolate MGRM-A-010 (clade A pseudovirus) (HIV-1)
[34] = biological target: HIV-1 Env of isolate MGRM-A-013 (clade A pseudovirus) (HIV-1)
[35] = biological target: HIV-1 Env of isolate MGRM-D-003 (clade D pseudovirus) (HIV-1)
[36] = biological target: HIV-1 Env of isolate NL43, clade B (HIV-1)
[37] = biological target: HIV-1 Env of pseudovirus MGRM-F1-021 (clade F) (HIV-1)
[38] = biological target: HIV-1 IAVI-C3 envelope (Env) on pseudovirus (HIV-1)
[39] = biological target: HIV-1 MGRM-AG-006 Env (pseudovirus) (HIV-1)
[40] = biological target: HIV-1 MGRM-AG-012 Env (pseudovirus) (HIV-1)
[41] = biological target: HIV-1 MGRM-G-004 Env (pseudovirus) (HIV-1)
[42] = biological target: HIV-1 envelope glycoprotein (Env) of isolate LAVI_C3 (HIV-1)
[43] = biological target: HIV-1 envelope glycoprotein (Env) of isolate MGRM-C-022 (HIV-1)
[44] = biological target: HIV-1 isolate 94UG114 envelope glycoprotein (Env), clade D, on pseudovirus (HIV-1)

Chain of 4993_K13 (PGT-141) (antibody) (VH): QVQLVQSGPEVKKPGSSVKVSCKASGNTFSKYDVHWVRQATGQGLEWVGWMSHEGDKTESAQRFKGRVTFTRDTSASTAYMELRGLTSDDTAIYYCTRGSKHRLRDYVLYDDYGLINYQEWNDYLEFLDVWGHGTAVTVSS
Chain of 4993_K13 (PGT-141) (antibody) (VL): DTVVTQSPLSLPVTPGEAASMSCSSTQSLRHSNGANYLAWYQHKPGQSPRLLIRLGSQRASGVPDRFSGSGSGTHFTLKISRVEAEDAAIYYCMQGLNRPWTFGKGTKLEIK
Chain of PGT-145 (4995_P16) (antibody) (VH): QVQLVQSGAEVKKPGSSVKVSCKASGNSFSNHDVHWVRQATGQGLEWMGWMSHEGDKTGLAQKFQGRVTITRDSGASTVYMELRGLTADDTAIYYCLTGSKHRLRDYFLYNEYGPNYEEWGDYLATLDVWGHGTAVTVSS
Chain of PGT-145 (4995_P16) (antibody) (VL): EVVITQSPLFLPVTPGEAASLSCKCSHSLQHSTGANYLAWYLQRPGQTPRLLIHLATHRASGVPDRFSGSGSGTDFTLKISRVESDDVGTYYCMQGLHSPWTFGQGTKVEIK
Chain of PGT-142 (4995_E20) (antibody) (VH): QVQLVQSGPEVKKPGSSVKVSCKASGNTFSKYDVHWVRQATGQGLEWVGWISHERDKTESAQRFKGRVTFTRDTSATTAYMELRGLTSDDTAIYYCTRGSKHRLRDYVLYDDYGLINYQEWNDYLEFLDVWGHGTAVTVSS
Chain of 5329_C19 (PGT-136) (antibody) (VH): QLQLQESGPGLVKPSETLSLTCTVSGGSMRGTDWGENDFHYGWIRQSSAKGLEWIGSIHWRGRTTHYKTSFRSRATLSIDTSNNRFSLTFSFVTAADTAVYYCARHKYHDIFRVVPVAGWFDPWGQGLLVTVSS
Chain of 5329_C19 (PGT-136) (antibody) (VL): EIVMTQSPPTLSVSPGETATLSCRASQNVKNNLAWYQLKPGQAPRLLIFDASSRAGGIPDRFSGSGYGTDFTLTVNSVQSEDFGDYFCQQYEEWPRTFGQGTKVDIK

## 4877_D15 (PGT-122) (antibody)
[1]
  IC50, pseudovirus neutralization: 0.0138 µg/mL
[2]
  IC50 (ug/mL), pseudovirus neutralization: > 10 µg/mL
[3]
  IC50 (µg/mL), pseudovirus neutralization: 31.4 µg/mL
[4]
  IC50, pseudovirus neutralization: 0.003 µg/mL
[5]
  IC50, pseudovirus neutralization: > 50 µg/mL
[6]
  IC50, pseudovirus neutralization: 0.007 µg/mL
[7]
  IC50, pseudovirus neutralization: 0.008 µg/mL
[8]
  IC50, pseudovirus neutralization: 0.005 µg/mL
[9]
  IC50, pseudovirus neutralization: > 50 µg/mL
[10]
  IC50, pseudovirus neutralization: 0.103 µg/mL

## 4993_K13 (PGT-141) (antibody)
[11]
  IC50 (µg/mL), pseudovirus neutralization: > 50 µg/mL
[12]
  IC50 (µg/mL), single-round pseudovirus neutralization: 11.1 µg/mL
[13]
  IC50, single-round pseudovirus neutralization: 11.8 µg/mL
[14]
  IC50 (µg/mL), pseudovirus neutralization: 0.043 µg/mL

## 5329_C19 (PGT-136) (antibody)
[2]
  IC50 (ug/mL), pseudovirus neutralization: > 10 µg/mL
[15]
  IC50 (µg/mL), pseudovirus neutralization: 0.052 µg/mL
[16]
  IC50, pseudovirus neutralization: > 50 µg/mL
[17]
  IC50, pseudovirus neutralization: > 50 µg/mL
[18]
  IC50 (µg/mL), pseudovirus neutralization: > 50 µg/mL
[19]
  IC50 (µg/mL), pseudovirus neutralization: > 50 µg/mL
[20]
  IC50 (µg/mL), pseudovirus neutralization: > 50 µg/mL
[21]
  IC50 (µg/mL), pseudovirus neutralization: > 50 µg/mL
[22]
  IC50 (µg/mL), pseudovirus neutralization: > 50 µg/mL
[23]
  IC50 (µg/mL), pseudovirus neutralization: > 50 µg/mL
[24]
  IC50 (µg/mL), pseudovirus neutralization: 9.31 µg/mL
[25]
  IC50, pseudovirus neutralization: > 50 µg/mL

## 4995_P16 (PGT-145) (antibody)
[11]
  IC50 (µg/mL), pseudovirus neutralization: 20.1 µg/mL
[12]
  IC50 (µg/mL), single-round pseudovirus neutralization: 0.128 µg/mL
[13]
  IC50, single-round pseudovirus neutralization: 5.82 µg/mL
[14]
  IC50 (µg/mL), pseudovirus neutralization: 0.286 µg/mL

## PGT-141 (4964_G22; 4993_K13) (antibody)
[26]
  IC50, pseudovirus neutralization: > 50 µg/mL
[27]
  IC50, pseudovirus neutralization: > 50 µg/mL
[28]
  IC50, pseudovirus neutralization: 0.057 µg/mL
[29]
  IC50: 18 µg/mL

## PGT-145 (4995_P16) (antibody)
[26]
  IC50, pseudovirus neutralization: > 50 µg/mL
[27]
  IC50, pseudovirus neutralization: 0.224 µg/mL
[28]
  IC50, pseudovirus neutralization: 0.03 µg/mL
[29]
  IC50: 0.164 µg/mL

## PGV04 (antibody)
[24]
  IC50 (µg/mL), pseudovirus neutralization: 5.99 µg/mL
[14]
  IC50 (µg/mL), pseudovirus neutralization: 0.083 µg/mL

## PGT-142 (4995_E20) (antibody)
[26]
  IC50, pseudovirus neutralization: > 50 µg/mL
[27]
  IC50, pseudovirus neutralization: > 50 µg/mL
[28]
  IC50, pseudovirus neutralization: 0.192 µg/mL
[29]
  IC50: 12.4 µg/mL

## 5343_B08 (PGT-135) (antibody)
[2]
  IC50 (ug/mL), pseudovirus neutralization: > 10 µg/mL
[15]
  IC50 (µg/mL), pseudovirus neutralization: 0.01 µg/mL
[16]
  IC50, pseudovirus neutralization: > 50 µg/mL
[17]
  IC50, pseudovirus neutralization: > 50 µg/mL
[18]
  IC50 (µg/mL), pseudovirus neutralization: > 50 µg/mL
[19]
  IC50 (µg/mL), pseudovirus neutralization: > 50 µg/mL
[20]
  IC50 (µg/mL), pseudovirus neutralization: 0.039 µg/mL
[21]
  IC50 (µg/mL), pseudovirus neutralization: > 50 µg/mL
[22]
  IC50 (µg/mL), pseudovirus neutralization: 0.211 µg/mL
[23]
  IC50 (µg/mL), pseudovirus neutralization: 1.11 µg/mL
[24]
  IC50 (µg/mL), pseudovirus neutralization: 0.168 µg/mL
[25]
  IC50, pseudovirus neutralization: > 50 µg/mL

## b12 (antibody)
[30]
  IC50 (µg/ml), pseudovirus neutralization: > 50 µg/mL
[31]
  IC50 (µg/ml), pseudovirus neutralization: > 50 µg/mL
[32]
  IC50 (µg/ml), pseudovirus neutralization: > 50 µg/mL
[33]
  IC50 (µg/ml), pseudovirus neutralization: > 50 µg/mL
[34]
  IC50 (µg/ml), pseudovirus neutralization: 7.04 µg/mL
[35]
  IC50, pseudovirus neutralization: > 50 µg/mL
[36]
  IC50 (µg/ml), pseudovirus neutralization: 0.17 µg/mL
[37]
  IC50: > 50 µg/mL
[38]
  neutralization IC50: 5 µg/mL
[39]
  IC50 (µg/ml), pseudovirus neutralization: > 50 µg/mL
[40]
  IC50 (µg/ml), pseudovirus neutralization: 10.4 µg/mL
[41]
  IC50 (µg/ml), pseudovirus neutralization: > 50 µg/mL
[42]
  IC50 (µg/ml), pseudovirus neutralization: 0.94 µg/mL
[43]
  IC50 (µg/ml), pseudovirus neutralization: > 50 µg/mL
[44]
  IC50 (µg/ml), pseudovirus neutralization: > 50 µg/mL

## 4995_E20 (PGT-142) (antibody)
[11]
  IC50 (µg/mL), pseudovirus neutralization: > 50 µg/mL
[12]
  IC50 (µg/mL), single-round pseudovirus neutralization: 9.7 µg/mL
[13]
  IC50, single-round pseudovirus neutralization: 6.02 µg/mL
[14]
  IC50 (µg/mL), pseudovirus neutralization: 0.019 µg/mL
